Laboratory results taken from a protein production outcome set (Wang et al. 2014).

Assay: label from the status in PepcDB records

Sequence	protein production
MRKKLNNEYRSAKKIRYMPGLDGLRAIAVIGIIIYHLNKQWLTGGFLGVDTFFVISGYLITSLLLKEYEDTGTINLKNFWIRRIKRLLPAVFALIVVVGIATLLLHPEHIVRVKHDMIAAIFYVSNWWYIAKDVNYFEQFSFMPLKHLWSLAIEEQFYLFFPAVLLLFMAIVKKKKNVILMFWIISLVSLLMMVVISQPHLNHSRVYFGTDTRLQTLLLGVLLAFIWPPFKLNPNPPKGLKTVINSAGIIGLTFLILLFFTVSDESDWIYNGGFYLISTMTLLIIASVVHPTTILAKLLGNPLFVYIGKRSYSLYLWHFPVISFIHSYFIDGQLPTYVYIMDIVITVLLAELSFRYVETPLRKEGLKAFTFKKTYKPQFIRTIVTLIMLLPFIFILVGAFDKFGKDTISNKAQTFNTNEADQYLIHMIPIDNISLTSDGKTKENKKDNDVYTQIKPLLIGDSVMVDIGEQFKTKVPKAKIDGKVGRQLYQAESLVKNQYRHYNKPSDQIILELGTNGDFTKEQLDNLIDKFGKAQVYLVNTRVPRSYESHVNELMAKAAKNKKNVTLIDWYSRSKGHTEYFAPDGIHLENDGVEALTDEILKNIKKK	failed
MRKLTFLLTFFMLLGSVQLQAKEYAIKDIPMVHLQNRTRYVSNPDGILSSTAVTTMDSILYALEQKTGIQTLVVAVTGIEGGDCFDFAHRLGQETGVGQKERDNGLVILLSTDERCVQFATGYGLEGILPDAICKRIQNRYMLPYFKDNNWNAGMVAGIRAVNGYLDGSMENIGNDESEDDPLEFIIIFFVIFGGFIGIGLYANWRKTRCPHCKKHKLQRLSSKVIDRSNGTKTEEVVYKCRNCGHILRRKERSRDENYKGPRGGGPFIGGMGGGFFGGHGGSGGGFSGGSFGGGSFGGGGAGSRF	failed
MRKNILITGVHGYIGNALKDKLIEQGHQVDQINVRNQLWKSTSFKDYDVLIHTAALVHNNSPQARLSDYMQVNMLLTKQLAQKAKAEDVKQFIFMSTMAVYGKEGHVGKSDQVDTQTPMNPTTNYGISKKFAEQALQELISDSFKVAIVRPPMIYGAHCPGNFQRLMQLSKRLPIIPNINNQRSALYIKHLTAFIDQLISLEVTGVYHPQDSFYFDTSSVMYEIRRQSHRKTVLINMPSMLNKYFNKLSVFRKLFGNLIYSNTLYENNNALEIIPGKMSLVIADIMDETTTKDKA	failed
MRKVLFTVALLLTACFVSAQVSVVKEAKSLKSKPEEAAKAIEPALTNPETANDPETWKLAGDFQKAIYDEENMKLYLPGGQADTTKLYNSLAKMYDFYLKCDEIEQAKVQSGELKKPKFRKKNADALKTLRLNLVNGGGDAYNKGDYADALKYFGLFVDVVNEPMFADDDELKADTLNALYACYATLAANMLKDNQAVIKYGNIGKNHKEEGYRALMCLAETYGQKEGGDSAKWLEVIKEGTESFPKQEYFVGNIMDYYIQKGMVDEGLAQINKLLATSETPYYLYVKGILLYEKKQYDDAVAIFNKIISNNGDLVAEAYSKIGDCYFFPAQIIVEENAKLAIDDPKYNENENKIKELYEKAKPYYEKAKELKPDNKALWGNYLLNIYWKLNRAEYDSLEKELGY	failed
MRLAEGIVIEKEKTFGTLKFSALRREVKIVDDEGNVTEQVKERTFDLKKEQGRMIQVSIPASAGVKNFDYNAEVEIINPIADTVATATFQGADVDWYIKAEDIVLKRPAQNQQADQKQNHDKKLEHHHHHH	failed
MRLERTFDPNDLSTQNMESPICLPIGFVHFLAQSQTLQQVLDTVAEWINRIFESDRTSITLYENSDYLKVYSFSGNKAIPADFLVPIDQAFVGRVFKNQQLIICDDVSQSDELDCVMLTSSGMGTCMDAPLMHGQMCLGTLNVAHHQTHFYTKEQAAQLQCIANWIALNIALHIQIMKMEHLATTDDLTGIPNRREFMRQIEHRLSEFRTQGIKFHVAILDLDNFKKLNDKFGHDAGDKSLIHAANTIKGHLRECDLLARVGGEEFAIVLRSRSSQEAMDTLETIRNALETTTIRYSGRDMTFTASIGVTQVCGLDDSFEPLVKRADLALYKAKETGRNRVEINHSEHQGVSNEQ	failed
MRLFAINAGNFKLDGGAMFGVVPKSIWNKLNPADSNNLCTWATRCLLIENGKQLVLIDTGLGDKQDESFFRHYYRDTPQTWDTLLKPYGFHSSDITDVVLTHLHFDHVGGALEKKGDKIVPTFSNARYWSNTRHWDWAVEPNPREKASFLKDNLFPLQESGQLYFVDTQNLPFEWMDFIFVDGHTEQQMLPLITTPAEKKILYAADLLPSAGHIPMPYIMSYDVRPLVSMQEKERVFNQVLAEDWTVFLEHDLSNACISLQQTEKGIRLNNVFQISDFNLEHHHHHH	failed
MRLIEQAIEKIESGQVTEGLTALEEAAKTANHEMKYTVAETYYELGHLDKAQAIIDELLMLYPDEGGLYTFAAEILIDLNKEDEAIEMLNEIKEQDPAFLQAQLLLADLYQLQSLDEVAEQKLLKAYEVAPDEPIISFGLGEFYLERGDYIKSIPHLKRAKHGGLTNDQVNVSLKLAEAYSGSGQFEEALPHYDEGLKQKLDPHGLFGYGYTAYLLGDYVLAIEQFQALKALDPDFYDPIPVFGEGFRRGKSFRGSNGCFKRGDDRGLEHHHHHH	not failed
MRLKPLPSRPLLGGVLFFALVFAFAGINPWGGGHEGVWNAPREGGMALFALAALAGVLLERRGRGLSVGGGALLALLASAGFLLAGAASTLLSPQPIWSWTGYPSVGDGLRFWALGVAFAWAVFLALETRVLSPRGLFGALLLALGLHALAVFPQVVDWKLDYTQTQGQTYVRCFDRERTDCYENPNATASGIYRGQMPIGLTSHRGHAAGVLALLGLVAAGLYLRSPRPGLLLLFGLGALALWFTQTRGGWLALWGTLALLALGLTWKRPGRLRPALALFLVGALSYGLYLALGQMGVQEPRRFPELGASFAEANAYSSGRLELWRKALAALPLRPWLGWGFDGYARASPHAVDWNGEDRRFVPAALSLPVRLVQGEDRLFYLEDPTGLRLLAPAPYAKAHNLFLDLLLSVGVLGGAAYLLWLGAALRQASWAKLPFALAVAGYLLYGLTWYDSVHVTPLALLALGALVTREEVWRGA	failed
MRLLPRETGDGDRPRVARSARPRAGSAVEGALSAAQRPLRHGAYPRRATSPVARVRMVFLALVATLFALPALAEPKFPPLSGRVVDEAQVLSPDVERDLSDKLAALETRTGHQLVVATVSSLQGYPIEDYGYRLGRTWGIGDKDKDDGAILLVAPNDRQVRIEVGYGLEPVLTDALSSVIIQSAILPKFRDGDLSGGIVAGADAMIEQLGLPPEEAKARVADAARPERHEARGSPIVGFLILLFIIFVFSSLFRGRRGGLGSALPWIILSALNNSGRGGGGWGGGGGGGFSGGGGSFGGGGSSGRW	failed
MRLLYVIKKENPMDQMPNCPKCQSEYVYHDSINFVCPDCGNEWDNNEIQESDDDQLIVKDSNGNLLAEGDNVLLIKDLKLKGSSEVLKKGTKFKNIRLVNGDHNVDCGKIMLKSEFLKKA	failed
MRLLYVIKKENPMDQMPNCPKCQSEYVYHDSINFVCPDCGNEWDNNEIQESDDDQLIVKDSNGNLLAEGDNVLLIKDLKLKGSSEVLKKGTKFKNIRLVNGDHNVDCGKIMLKSEFLKKALEHHHHHH	not failed
MRLPRQIRLPHLRDIGALLTDSAREWSRHRASSKGAALSLYMVFSLAPMLILVIAVAGAFFGEEAVRSELFSQVRDLTGERGAEVIQTVLASAHESGSGWLAALLSICVLVFSATTAFAELKASLDELWDVKEDKSGLQGLVRSRMLSFGLVLVLALFLLLSLTLNAALGAAKGYYGDLWSTSAFAMAADWLSNLFSFAVVTALFAVVYKLLPSKRIPWLDVIPGAIVTAALFLAGKWGIGLYLERGTAVSAYGAAGSLIALLLWIYYSAQIFFFGAVFTRQFAERFGNLRRAAPA	not failed
MRLSAEQVVEVLRAAGESTRLRLLALLAAEELSVLELCRILDQSQPRVSRHLKLLAEAGLVERFPDGAWVFYRLAAKSPGRLLVEQALDLIDEGDETVQSDADKLAAVRAERSTDAQAYFARNAARWNEIRSLYVDEAEVEAAILRATGEGPFDEMVDLGAGAGRMLTLLGKRAANALGLDLSQQMLNIARDEVSKAGLTACELRHGDIFRTGLPGGCADLVTVHQVLHYLTDPATAVAEAARLVTPGGLLLIADFAPHGHEFLREVHQHRRLGFDDAEIVAWLQAAGLVLESNIALPPATAEGLTVKIWTARRPGKASLERSAA	failed
MRLSFGITSKLFVALFALSMVVALAMGAAVRWRFDTNFLDYVNAREAERMAVFAQSIESVYAEHGNWGVLRNDRQAWYRLIRREIGRTHAGPFGGPRGDAEPVPPFAPPPGDVPPPGLPPPPPDAGDRPPQHPPGEGPGMHPPIWLLDAGRVPIVGDGPPPGPGSQWHALHHNGQTVGWLATPQRMHVPEGADQAFLAQQLRATWIIAALSVLLAAGVAILLARGVLAPMRRLAHATRRMAEGDYAARVDVHSGDEIGHLADDFNRLAETLEANQKMRRQLTADISHELRTPLAVLRGELEALEDGVRALTPASLTSLQAEVGTLSKLIDDLYELSLADVGALAFHMESIDLADTVCSAAQGFTPRLMDKRIALQLDLPTGPSRDAAIQGDPQRLRQLMQNLLENTLRYTDAGGTLRIHVHRAGAWWCLDVQDSAPGVPEAMLPRVFDRLFRADPSRGRAQGGAGLGLSLCQTIVQTHGGTIDARPSPLGGLWIAIRLPAANSSVADHDPDR	failed
MRLTARSEPSSAPFPSGTGRQIGADCNGPSACQALQFTPFCPSRDNEMSDWSLDQARKTYSIPHWADGYFDVNDAGHVVVRPTADGPAVSLPEVVDAARAAGAKLPLLVRFPDILGQRLGKLQAAFAQAQADWDYAGGYTAVYPIKVNQHRGVAGTLASHHGEGFGLEAGSKPELMAVLALSRPGGLIVCNGYKDREYIRLALIGRKLGLQTFIVIEKPSELNLVLEEARALDVKPGLGVRMRLASLGAGKWQNSGGDKAKFGLSPRQVLDLWKSLRDTEYADSLNLLHFHMGSQISNVRDIANGMREATRYFVELSRLGAKISHVDVGGGLGIDYEGTRSRSYCSINYGLHSYASNIVQPLASACEEHGLPPPRIVTECGRAMTAHHAVLIANVSEVEQAPEGRVPDAHDDEPAAIRHLREIHDELDVRPAVELFQEAQHFHAEGLSAYALGQIDLTHRARIDDLFYAIAHGVRARLSFDEKSHRPVLDELNERLVDKYFVNFSVFESIPDVWAIDQVFPIVPIERLNEAPQRRGIIADMTCDSDGMVKTYVENESLDSSLPLHGLNPGESYRIGFFLVGAYQEILGDIHNLFGDTDAVEVAVDGTGYRIAQQRRGDTTDVMLDYVGYQLDTLRATYAERIAAAQLPPERAQELHDALEAGLTGYTYLSDEPLG	failed
MRLTDQKRESIVQAAIAEFGDRGFEITSMDRIAARAEVSKRTVYNHFPSKEELFAEMLQRLWNCAPPQSEVVYRPLVSLREQLLELLWGKMRNLTDSSFLDLARVVVGATIHSPERAQVWLARINEREETFSAWIRAAQKDGRLKPVDPGFAATQMHALLKSFAFWPQVTFNAALLTPQEQSNVVESALNMFLGWYEIPG	not failed
MRLTSKGRYAVTAMLDVALNSEAGPVPLADISERQGISLSYLEQLFSRLRKNGLVSSVRGPGGGYLLGKDASSIAVGEVISAVDESVDATRCQGKGGCQGGDKCLTHALWRDLSDRLTGFLNNITLGELVNNQEVLDVSGRQHTLEHHHHHH	not failed
